Test results from FireProtDB (doi:10.1021/bi048926x).
Several values for one entry are separate records, joined by “and”; a condition that tells them apart may be missing. Identical values can stand only once.

B1: Azurin, P00282 (parent)
chain: MLRKLAAVSLLSLLSAPLLAAECSVDIQGNDQMQFNTNAITVDKSCKQFTVNLSHPGNLPKNVMGHNWVLSTAADMQGVVTDGMASGLDKDYLKPDDSRVIAHTKLIGSGEKDSVTFDVSKLKEGEQYMFFCTFPGHSALMKGTLTLK

Variants of: B1
Details: Pseudomonas aeruginosa (strain ATCC 15692 / DSM 22644 / CIP 104116 / JCM 14847 / LMG 12228 / 1C / PRS 101 / PAO1), pH 7, Thermal, reversible: No, structure 5AZU, whole UniProt chain shown
[1] = DSC, Potassium phosphate 100 mM

Variant	Tm (Absorbance, Phosphate 10 mM) [°C]	change of melting temperature, mutant - wild type (higher = more stable) (Absorbance, Phosphate 10 mM) [°C]	change of melting temperature, mutant - wild type (higher = more stable) [1]	unfolding enthalpy (calorimetric) [1]
MLRKLAAVSLLSLLSAPLLAAECSVDIQGNDQMQFNTNAITVERSCKQFTVNLSHPGNLPKNVMGHNWVLSTAADMQGVVTDGMASGLDKDYLKPDDSRVIAHTKLIGSGEKDSVTFDVSKLKEGEQYMFFCTFPGHSALMKGTLTLR [D43E K148R K44R]	75	-3	-1.2 °C and -0.9 °C and -1.1 °C	
MLRKLAAVSLLSLLSAPLLAAECSVDIQGNDQMQFNTNAITVEKSCKQFTVNLSHPGNLPKNVMGHNWVLSTAADMQGVVTDGMASGLDKDYLKPDDSRVIAHTKLIGSGEKDSVTFDVSKLKEGEQYMFFCTFPGHSALMKGTLTLR [D43E K148R]	74	-4		89.2 kcal/mol and 108 kcal/mol and 122 kcal/mol
MLRKLAAVSLLSLLSAPLLAAECSVDIQGNDQMQFNTNAITVDRSCKQFTVNLSHPGNLPKNVMGHNWVLSTAADMQGVVTDGMASGLDKDYLKPDDSRVIAHTKLIGSGEKDSVTFDVSKLKEGEQYMFFCTFPGHSALMKGTLTLK [K44R]	76	-2	0.8 °C and 0.6 °C and 1 °C	124 kcal/mol and 150 kcal/mol and 75.5 kcal/mol
MLRKLAAVSLLSLLSAPLLAAECSVDIQGNDQMQFNTNAITVDKSCKQFTVNLSHPGNLPKNVMGHNWVLSTAADMQGVVTCGMASGLDKDYLCPDDSRVIAHTKLIGSGEKDSVTFDVSKLKEGEQYMFFCTFPGHSALMKGTLTLK [D82C K94C]	78	0		
